In patent CN117836322A (PASTEUR INSTITUT, dated 2024) one finds Kd data, which are given here for five molecules.

The chains are these.
B1: Cv2.1169 IgG1 (antibody, V domains shown)
VH: QVQLVQSGPEVKKPGTSVKVSCKASGFTFTTSAVQWVRQARGQRLEWIGWIVVGSGNTNYAQKFQERVTITRDMSTTTAYMELSSLRSEDTAVYYCAAPYCSGGTCLDGFDIWGQGTMVTVSS
VL: not shown
B2: Cv2.1353 IgG1 (antibody, V domains shown)
VH: EVQLVESGGGLVQPGGSLRLSCAASGVTVSSNYMNWVRQAPGKGLEWVSVIYSGGSTFYADSVKGRFIISRDNSKNTLYLQMNSLKTEDTAVYYCARDLGPMGFDIWGQGTMVTVSS
VL: DIQMTQSPSFLSASVGDRVTITCRASQGISSYLAWYQQKPGKAPKLLIYAASTLQSGVPSRFSGSGSGTEFTLTISSLQPEDFATYYCQQLNSDPPVTFGPGTKVDIKR
B3: Cv2.3194 IgG1 (antibody, V domains shown)
VH: EVQLVESGGGLIQPGGSLRLSCAASGITVTSNYMSWVRQAPGKGLEWVSVIYPGGSTFYADSVKGRFTISRDNSKNTLYLQMNSLRAEDTAVYYCARDLVVYGMDVWGQGTTVTVSS
VL: EIVLTQSPGTLSLSPGERATLSCRASQSVSSSYLAWYQQKPGQAPRLLIYGASSRATGIPGRFSGSGSGTDFTLTISRLEPEDFAIYYCQQGVTFGGGTKVEIKR
B4: Cv2.5213 IgG1 (antibody, V domains shown)
VH: B3 VH with I27F, T30S, V50L, P53S, F58Y, V100N, V101Y, T111A
VL: B2 VL with F10S, E70D, N92D, D94Y, P95S, V97F
B5: Cv2.3235 IgG1 (antibody, V domains shown)
VH: B3 VH with I27F, T30S, S31R, P53S, L99G, V100D, V101Y
VL: DIQMTQSPSFLSASVGDRVTITCRASQGISSFLAWYQQKPGKAPKLLIYGASTLQSGVTSRFSGSGSGTEFTLTISSLQPEDFATYYCQRLDSYPPITFGQGTRLEIKR

Residue numbers refer to the chain shown, from its start.

A word on the Kd: it is the concentration at which binding is half-saturated.

The target in this assay is T1, SARS-CoV-2 S1结构域 (SARS-CoV-2, UniProt P0DTC2 16-681).
T1 construct: also called S1亚基
The experiment in a line: SPR (Biacore), antibody coupled to CM5 chip, viral protein as analyte, 25°C. (SPR reads the build-up and loss of mass on a sensor chip optically.)
In the case of B1, the Kd is less than 1000 nM.
The value for B2 was less than 1000 nM; that for B3 was less than 1000 nM; that for B4 was less than 1000 nM.
The value for B5 was less than 1000 nM.
